# Fewer inactive variants are shown than the library holds.
# B1: TPR 5TU (parent)
# chain: GGAUCUUCUCGAUCUAACAAAAAAGACAAAUCUGCCACAAAGCUUGAGAGCAUCUUCGGAUGCAGAGGCGGCAGCCUUCGGUGGCGCGAUAGCGCCAACGUUCUCAACUAUGACACGCAAAACGCGUGCUCCGUUGAAUGGAGUUUAUCAUG
# Variants of: B1
# Assay: polymerase ribozyme fitness, log enrichment relative to wild type (log ratio); higher = more active; in vitro selection for triplet polymerase activity
# In short: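 Mutant libraries for each subunit of a heterodimeric triplet polymerase ribozyme were made by PCR and then transcribed. Each library underwent one round of in vitro selection in triplicate: annealing with a biotinylated primer, the partner subunit and triplets, frozen incubation at −7 °C, gel excision of extended constructs, streptavidin-bead capture and RT-PCR. Input and output libraries were Illumina-sequenced, and only genotypes with ≥10 input reads and ≥1 read per output were kept. Fitness is the logarithm, base 2, of genotype enrichment over wild-type enrichment, computed from inverse-variance-weighted replicate averages.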
row,Variant,polymerase ribozyme fitness (log ratio)
1,GGAUCUUCUCGAUCUAACAAAAAAGACAAAUCUGCCACAAAGCUUGAGAGGAUUUUCGGAUGCAGAGGCGGCAGCCUUCGGUGGCGCGAUAGCGCCAGCGUUCUCAACUAUGACACGCAAAACGCGUGCUCAGUGGAAUGGAGUUUAUCAUG [C51G C54U A98G C132A U135G],≤ -4.2
2,GGAUCUUCUCGAUCUAACAAAAAAGACAAAUCUGCCACAAAGCUUGAGAGAAUCUUCGGAUGCAGAGGCGGCAACCUUCGGUGGCGCGAUAGCGCCAACGUUCUCAACUAUGACACGCAAAACGCGUGCUCCGUUGAAUGGAGUUUAUCAUG [C51A G74A],≤ -4.2
3,GGAUCUUCUCGAUCUAACAAAAAAGACAAAUCUGCCACAAAGCUUGAGAGGAUCUUCGGAUGCAGAGGCGGCGGCCUUGGGUGGCGGGAUAGCGCCAACGUUCUCAACUAUGACACGCAAAACGCGUGCUCCGUUGAAUCGAGAUUAUCAUG [C51G A73G C79G C87G G140C U144A],≤ -4.2
4,GGAUCUUCUCGAUCUAACAAAAAAGACAAAUCUGCCACAAAGCUUGAGAGAAUCUUCGGAUGCAGAGGCGGCAGCCUUCGGUGGCCCGUUAGCGCCAACGUUCUCAACUAUGUCACGCAAAACGCAUGCUCCGUUGAAUGUAGUUUAUCAUG [C51A G86C A89U A113U G126A G141U],≤ -4.2
5,GGAUCUUCUCGAUCUAACAAAAAAGACAAAUCUGCCACAAAGCUUGAGAGAAUCUUCGGAUGCAGAGGCGGCAGCCUUCGGGGGCGCGAUAGCGCUAACGUUCUCAACUAUGACACGCAAAACGCGUGCUCCGUUGAAUGGACUUUAUCAUG [C51A U82G C96U G143C],≤ -4.2
6,GGAUCUUCUCGAUCUAACAAAAAAGACAAAUCUGCCACAAAGCUUGAGAGGAUCUUCGGAUGCAGAGGCGGCUGCCUUCGGUGGCGCGAUAGCGCCAACGUUCUCAACUAUGACACGCAAAACGCGUGCUCCGUUGAAUGGAGUUUAUCAUG [C51G A73U],-3.44
7,GGAUCUUCUCGAUCUAACAAAAAAGACAAAUCUGCCACAAAGCUUGAGAGAAUCUUCGGAUGCAGAGGCGGCAGCCUUCGGUGGCGCGAUAGCGCCAAGGUUCUCAACUAUGACACGCAAAACGCGUGCUCCGUUGAAUGGAGUUUAUCAUG [C51A C99G],-4.07
8,GGAUCUUCUCGAUCUAACAAAAAAGACAAAUCUGCCACAAAGCUUGAGAGAAUCUUCCGAUGCAGAGGCGGCAGCCUUCGGUGGCGCGAUAGCGCCAACGUUCUCAACUAUGACACGCAAAACGCGUGCUCCGUUGAAUGGAGUUUAUCAUG [C51A G58C],-2.22
9,GGAUCUUCUCGAUCUAACAAAAAAGACAAAUCUGCCACAAAGCUUGAGAGAAUCUUCGGAUGCAGAGUCGGCAGCCUUCGGCGGCGCGAUAGCGCCAACGUUCUCAACUAUGACAUGCAAAACGCGUGCUCCGUUGAAUGGAGUUGAUCAUG [C51A G68U U82C C116U U146G],≤ -4.2
10,GGAUCUUCUCGAUCUAACAAAAAAGACAAAUCUGCCACAAAGCUUGAGAGAAUCUUCGGAUGCAGAGGCGGCAGCCUUCGGUGGCGCGAUAGCGCCAACGUUCUCAACUAUGACACGCAAAACGCGUGCUCCGGUGAAUGGAGAUUAUCAUG [C51A U134G U144A],-4.17
11,GGAUCUUCUCGAUCUAACAAAAAAGACAAAUCUGCCACAAAGCUUGAGAGAAUCUUCGGAUGCAGAGGCGGCAGCCUUCGGUGGCGCGAUAGCGCAAACGUUCUCAACUAUGACGCGCAAAACGCGUGCUCCGUUGUAUGGAGUUUAUCAUG [C51A C96A A115G A137U],≤ -4.2
12,GGAUCUUCUCGAUCUAACAAAAAAGACAAAUCUGCCACAAAGCUUGAGAGAAUCUUCGGAUGCAGAGGCGGCAGCCUUCGGUGGCACGAUAGCGCCAACGUUCUCAACUAUGACACGCAAAACGCAUUCUCCGUUGAAUGAAGUUUAUCAUG [C51A G86A G126A G128U G141A],≤ -4.2
13,GGAUCUUCUCGAUCUAACAAAAAAGACAAAUCUGCCACAAAGCUUGAGAGAAUCUUCGGAUGCAGAGGCGGCAGCCUUCGGUGGCGCGAUAGCGCCAACGUUCUCAACUAUGACACGCAAAACGCGUGCUCCGUUGAAUCGAGUUUAUCAUG [C51A G140C],-4.19
14,GGAUCUUCUCGAUCUAACAAAAAAGACAAAUCUGCCACAAAGCUUGAGAGAAUCUUCGGAUGCAGAGGCGGCAGCCUUCGGUGGCGCGAUAGCGCCAACGUUCUCAACUAUGACACGCAAAACGCGUGCUCCGUUGAAUUGAGUUUAUCAUG [C51A G140U],-4.11
15,GGAUCUUCUCGAUCUAACAAAAAAGACAAAUCUGCCACAAAGCUUGAGAGAAUCGUCUGAUGCAGAGGCGGCAGCCUUCGGUGGCGCGAUAGCGACAACGUUCUCAACUAUGACACGCAAAACGCGUGCUCCGUUGAAUGGAGUUUAUCAUG [C51A U55G G58U C95A],-1.74
16,GGAUCUUCUCGAUCUAACAAAAAAGACAAAUCUGCCACAAAGCUUGAGAGAAUCUUCGGAUGCAGAGGCGGCAACCUUCGGUGGAGCGAUAGCGCCAACGUUCUCAACUAUGAAACGCAAAACGCGUGCUCCGUUGAAUGGAGUUUAUCAUG [C51A G74A C85A C114A],≤ -4.2
17,GGAUCUUCUCGAUCUAACAAAAAAGACAAAUCUGCCACAAAGCUUGAGAGGAUCUUCGGAUGCAGAGGCGGCAGCCUUCGGUGGCGCGAUAGCGCCAACGUUCUCGACUAUGACACGCAAAACGCGUGCUCCGUUGAAUGGAGAUUAUCAUG [C51G A106G U144A],-3.29
18,GGAUCUUCUCGAUCUAACAAAAAAGACAAAUCUGCCACAAAGCUUGAGAGGGUCUUCGGAUGCAGAGGCGGCAGCCUUCGGUGGCGCGAUAGCGCCAACGUACUCAACUAUGACACGCAAAACGCGUGCUCCGUUGAAUGGAGUUUAUCAUG [C51G A52G U102A],-3.01
19,GGAUCUUCUCGAUCUAACAAAAAAGACAAAUCUGCCACAAAGCUUGAGAGAAUCUUCGGAUGCAGAAGCGGCGGCCUUCGGUGGCGCGAUAGCGACAACGGUCUCAACUAUGACACGCAAAACGCGUGCUCCGUUGAAUUGAGUUUAUCAGG [C51A G67A A73G C95A U101G G140U U151G],≤ -4.2

row,Variant,polymerase ribozyme fitness (log ratio)
1,GGAUCUUCUCGAUCUAACAAAAAAGACAAAUCUGCCACAAAGCUUGAGAGAAUCUUCGUAUGCAGAGGCGGCAGCCUUCGGUGUCGCGAUAGCGCCAACGUUCUCAACUAUGACACGCAAAACGCGUGCUCCGUUGAAUGGAGUUUAUCAUG [C51A G59U G84U],≤ -4.2
2,GGAUCUUCUCGAUCUAACAAAAAAGACAAAUCUGCCACAAAGCUUGAGAGAAUCUUCAGAUGCAGAGGCGGCACCCUUCGGUGGCGCGAUAGCGCUAACGUUCUCACCUAUGACACGCAAAACGCGUGCUCCGUUGAAUGGAGUUUAUCAUG [C51A G58A G74C C96U A107C],≤ -4.2
3,GGAUCUUCUCGAUCUAACAAAAAAGACAAAUCUGCCACAAAGCUUGAGAGAAUCUUCGGAUGCAGAGGCGGCAGCCUUCGGUGGCGCGAUAGCGCCAACGUUCUCAACUAUGACACGGAAAACGCGUGCUCCGUUGAAUGGAGUUUAUCAUG [C51A C118G],-3.24
4,GGAUCUUCUCGAUCUAACAAAAAAGACAAAUCUGCCACAAAGCUUGAGAGGAUCUUCGGAUGCAGAGGCGGCAGCCUUCGGUGGCGCGAUUGCGCCAACGUUCUCAACUAUGACACGCAAAACGCGUGCUCCGUUGAAUGGAGUUUAUCAUG [C51G A91U],≤ -4.2
5,GGAUCUUCUCGAUCUAACAAAAAAGACAAAUCUGCCACAAAGCUUGAGAGGAUCUUCGGAUGCAGAGGCGGCAGCCUUCGGUGGCGCGAUGGCGCCAACGUUCUCAACUAUGACACGCAAAACGCGUGCUCCGUUGAAUGGAGUUUAUCAUG [C51G A91G],≤ -4.2
6,GGAUCUUCUCGAUCUAACAAAAAAGACAAAUCUGCCACAAAGCUUGAGAGAAUCUUCGGAUGCAGAGGCGGCAGCCUUCGGUGGCGCGAUAGCGCAAACGUUCUCAACUAUGACACGCAAAACGCGUGCUCCGUUGAAUGGAGUUUAUCAUG [C51A C96A],-1.26
7,GGAUCUUCUCGAUCUAACAAAAAAGACAAAUCUGCCACAAAGCUUGAGAGGAUCUUCGGAUGCAGAGGCGGCAGCCUUCGGUGGCGCGAUAGCGCCAACGUUCUCGACUAUGACACGCAAAACGCGUGCUCCGUUGAAUGGAGUUUAUCAUG [C51G A106G],-3.04
8,GGAUCUUCUCGAUCUAACAAAAAAGACAAAUCUGCCACAAAGCUUGAGAGAAUCUUCGGAUGCAGAGGCGGCAGCCUUCGGUGGCGCGAUAGCGCCAACGUUCUCAACUAUGACACUCAAAACGCGUGCUCCGUUGAAUGGAGUUUAUCAUG [C51A G117U],-1.02
9,GGAUCUUCUCGAUCUAACAAAAAAGACAAAUCUGCCACAAAGCUUGAGAGAAUCUUCGGAUGCAGAGGCGGCAGCCUUCGGUGGCGAGAUAGCGCCAACGUUCUCAACUAUGACACGCAAAACGCGUGCUCCUUUGAAUGGAGUUUAUGAUG [C51A C87A G133U C149G],≤ -4.2
10,GGAUCUUCUCGAUCUAACAAAAAAGACAAAUCUGCCACAAAGCUUGAGAGAAUCUUCGGAUGCAGAGGCGGCAGCCUUCGGUGGCGCGAUAGCGCCAACGUUCUCAACUAUGACACGCAAAACGCGGGCUCCGUUGAAUGGAGUUUAUCAUG [C51A U127G],-4.1
11,GGAUCUUCUCGAUCUAACAAAAAAGACAAAUCUGCCACAAAGCUUGAGAGAAUCUUCGGAUGCAGAGGCGGCAGCCUUCGGUGGCUCGAUAGCGCCAACGUUCUCAAGUAUGACACGCAAAACGCGUGCUCCGUUGCAUGGAGUUUAUCAUG [C51A G86U C108G A137C],≤ -4.2
12,GGAUCUUCUCGAUCUAACAAAAAAGACAAAUCUGCCACAAAGCUUGAGAGAAUCUUCGGAUGCAGAGGCGGCAGCCUUCGGUGGCGCGAUAGCGUCAACGUUCUCAACUAUGACACGUAAAACGCGUGCUCCGUAGAAUGGAGUUUAUCAUG [C51A C95U C118U U135A],-2.41
13,GGAUCUUCUCGAUCUAACAAAAAAGACAAAUCUGCCACAAAGCUUGAGAGAAUCUUCGGAUGCAGAGGCGGCAGCCUUCGGUGACGCGAUAGCGCCAACGUUCUCAACUAUGACACGCAAAACGCGUGCUCCGUUGAAUGGAGAUUAUCAUG [C51A G84A U144A],-2.52
14,GGAUCUUCUCGAUCUAACAAAAAAGACAAAUCUGCCACAAAGCUUGAGAGAAUCGUCGGGUGCAGAGGCGGCAGCCUUCGGUGGCGCGAUAGUGCCAACGUUCUCAACUAUGACACGCAAAACGCGUGCUCCGUUGAAUGGAGUUUAUCAUG [C51A U55G A60G C93U],-2.7
15,GGAUCUUCUCGAUCUAACAAAAAAGACAAAUCUGCCACAAAGCUUGAGAGAAUCUUCGGAUGCAGAGGCGGCAGCCUUCGGUGGCACGAUAGCGCCAACGUUCUCAACUAUGACACGAAAAACGCGUGCUCCGUUGAAUGGAGUUUAUCAUG [C51A G86A C118A],-3.43
16,GGAUCUUCUCGAUCUAACAAAAAAGACAAAUCUGCCACAAAGCUUGAGAGGAUCUUCGGAUGCCGAGGUGGCAGCCUUCAGUGGCACGAUAGCGCUAACGUUCUCAACUAUGAAACGCAAAACGCGUGCUCCGUUGAAUGGAGUUUAUCAUG [C51G A64C C69U G80A G86A C96U C114A],≤ -4.2
17,GGAUCUUCUCGAUCUAACAAAAAAGACAAAUCUGCCACAAAGCUUGAGAGAAUCUUCGGAUGCAGAGGCGGCAGCCUUCGGUGGCGCGAUAGCGCCAACGUACUCAACUAUGACACGCAAAACGCGUGCUCCGUUGAAUGGAGUUUAUCAUG [C51A U102A],-1.41
18,GGAUCUUCUCGAUCUAACAAAAAAGACAAAUCUGCCACAAAGCUUGAGAGAAUCAUCGGCUGCAGAGGCGGCAACCUUCGAUGGCGCGAGAGCGACAACGUUCUCAACUAUGACACGCAAAACGCGUGCUCCGUUGAAUGGAGUUUAUCAUG [C51A U55A A60C G74A G81A U90G C95A],≤ -4.2
19,GGAUCUUCUCGAUCUAACAAAAAAGACAAAUCUGCCACAAAGCUUGAGAGGAUCUUCGGAUGCAGAGGCGGCAGCCUUCGGUGGCGCGAUGUCGCCAACGCUCUCAACUAUGACACGCAAAACGCGUGCUCCGUUGAAUGGAGUUUAUCAUG [C51G A91G G92U U101C],≤ -4.2
